Measurements as given in paper PMC10010549.
Changes are numbered by the printed parent chain.

Columns and labels:
Experiment in all cases: EMSA
Details in all cases: pH 7.5, 30 min at 37 C
[1] = target: T1, GntR (Streptococcus suis serotype 2 ZY05719) (UniProt A0A0H3MTN4)
T1 sequence: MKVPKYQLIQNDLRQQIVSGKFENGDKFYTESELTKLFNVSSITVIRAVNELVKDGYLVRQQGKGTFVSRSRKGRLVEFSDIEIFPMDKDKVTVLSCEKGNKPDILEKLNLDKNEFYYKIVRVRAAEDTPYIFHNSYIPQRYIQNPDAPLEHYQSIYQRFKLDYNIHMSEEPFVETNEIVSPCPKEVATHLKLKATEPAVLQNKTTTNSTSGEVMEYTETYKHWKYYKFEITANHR

[2] = target: T2, GntR-S41A S41A (Streptococcus suis serotype 2 ZY05719) (UniProt A0A0H3MTN4)
T2 sequence: T1 sequence with S41A

[3] = target: T3, GntR-S41E S41E (Streptococcus suis serotype 2 ZY05719) (UniProt A0A0H3MTN4)
T3 sequence: T1 sequence with S41E

GCCATAATGTAAAATCTCACTTTCGAAAATATATTTTTTTACGAACTATATTATACAATATAAATGTTACCGATTTCAAAAAATATGCTCAGAATATCACATTTTTTTCAAAAAGTTTTTGAAATGCTATTTTCTTTAAACAATGTAAAGATATATAAAAGCAAAAACCTAGATTTCTCTAGGTTTCTCTTAACGTACTTGTTCAAAACGC (double strand) [nox promoter]
binding [1]: binds
binding [2]: binds
binding [3]: no binding
